Results: publication PMC4156907 (Molecular cell, 2014)
Where two headings read alike, the source gives them in different places. Each block holds one binder with its values, some of them ahead of it.

Experiments:
[1] = target: T1, LGP2 (UniProt Q96C10 1-678); test: single-molecule TIRF
T1 sequence: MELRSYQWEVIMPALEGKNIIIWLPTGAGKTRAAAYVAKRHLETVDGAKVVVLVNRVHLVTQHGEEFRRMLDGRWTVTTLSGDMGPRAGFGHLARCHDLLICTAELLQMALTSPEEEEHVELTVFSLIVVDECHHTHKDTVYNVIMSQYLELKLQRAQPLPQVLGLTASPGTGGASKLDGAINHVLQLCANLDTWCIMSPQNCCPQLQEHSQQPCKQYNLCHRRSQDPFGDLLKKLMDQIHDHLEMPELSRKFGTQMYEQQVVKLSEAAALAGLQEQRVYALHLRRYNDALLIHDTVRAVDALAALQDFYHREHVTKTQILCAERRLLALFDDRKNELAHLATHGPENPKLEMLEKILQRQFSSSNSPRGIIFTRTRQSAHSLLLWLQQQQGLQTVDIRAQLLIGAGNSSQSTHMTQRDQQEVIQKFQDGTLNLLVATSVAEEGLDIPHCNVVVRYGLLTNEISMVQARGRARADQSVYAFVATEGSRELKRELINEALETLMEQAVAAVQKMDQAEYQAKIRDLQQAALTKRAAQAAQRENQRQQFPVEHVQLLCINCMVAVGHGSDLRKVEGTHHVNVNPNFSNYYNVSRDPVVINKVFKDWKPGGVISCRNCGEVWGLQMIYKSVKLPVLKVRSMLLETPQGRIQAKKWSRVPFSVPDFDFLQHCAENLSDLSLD

[2] = target: T2, MDA5-C (UniProt Q9BYX4 295-1025); test: single-molecule TIRF
T2 sequence: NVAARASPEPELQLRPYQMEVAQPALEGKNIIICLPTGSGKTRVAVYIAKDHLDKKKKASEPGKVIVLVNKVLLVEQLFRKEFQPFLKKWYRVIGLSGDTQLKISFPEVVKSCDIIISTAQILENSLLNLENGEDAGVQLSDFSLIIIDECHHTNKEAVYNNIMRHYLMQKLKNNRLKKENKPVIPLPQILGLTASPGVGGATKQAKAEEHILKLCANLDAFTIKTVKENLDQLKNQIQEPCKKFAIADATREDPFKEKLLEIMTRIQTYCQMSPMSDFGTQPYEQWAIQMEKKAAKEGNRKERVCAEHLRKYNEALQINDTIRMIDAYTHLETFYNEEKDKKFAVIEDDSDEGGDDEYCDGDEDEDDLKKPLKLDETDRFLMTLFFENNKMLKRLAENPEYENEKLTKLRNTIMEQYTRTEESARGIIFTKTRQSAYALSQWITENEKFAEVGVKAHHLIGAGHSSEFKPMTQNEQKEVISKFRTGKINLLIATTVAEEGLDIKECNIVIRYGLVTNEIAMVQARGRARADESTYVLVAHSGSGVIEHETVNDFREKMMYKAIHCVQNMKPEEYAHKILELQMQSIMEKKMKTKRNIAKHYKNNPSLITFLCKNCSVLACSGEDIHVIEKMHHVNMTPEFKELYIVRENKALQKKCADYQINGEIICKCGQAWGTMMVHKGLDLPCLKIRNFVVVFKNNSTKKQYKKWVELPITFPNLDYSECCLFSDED

[3] = target: T2, MDA5-C; test: single-molecule TIRF; remark: listed apart in the source
[4] = target: T3, MDA5 (full length, FLAG-tagged) (UniProt Q9BYX4 1-1025); test: co-IP
T3 sequence (looked up): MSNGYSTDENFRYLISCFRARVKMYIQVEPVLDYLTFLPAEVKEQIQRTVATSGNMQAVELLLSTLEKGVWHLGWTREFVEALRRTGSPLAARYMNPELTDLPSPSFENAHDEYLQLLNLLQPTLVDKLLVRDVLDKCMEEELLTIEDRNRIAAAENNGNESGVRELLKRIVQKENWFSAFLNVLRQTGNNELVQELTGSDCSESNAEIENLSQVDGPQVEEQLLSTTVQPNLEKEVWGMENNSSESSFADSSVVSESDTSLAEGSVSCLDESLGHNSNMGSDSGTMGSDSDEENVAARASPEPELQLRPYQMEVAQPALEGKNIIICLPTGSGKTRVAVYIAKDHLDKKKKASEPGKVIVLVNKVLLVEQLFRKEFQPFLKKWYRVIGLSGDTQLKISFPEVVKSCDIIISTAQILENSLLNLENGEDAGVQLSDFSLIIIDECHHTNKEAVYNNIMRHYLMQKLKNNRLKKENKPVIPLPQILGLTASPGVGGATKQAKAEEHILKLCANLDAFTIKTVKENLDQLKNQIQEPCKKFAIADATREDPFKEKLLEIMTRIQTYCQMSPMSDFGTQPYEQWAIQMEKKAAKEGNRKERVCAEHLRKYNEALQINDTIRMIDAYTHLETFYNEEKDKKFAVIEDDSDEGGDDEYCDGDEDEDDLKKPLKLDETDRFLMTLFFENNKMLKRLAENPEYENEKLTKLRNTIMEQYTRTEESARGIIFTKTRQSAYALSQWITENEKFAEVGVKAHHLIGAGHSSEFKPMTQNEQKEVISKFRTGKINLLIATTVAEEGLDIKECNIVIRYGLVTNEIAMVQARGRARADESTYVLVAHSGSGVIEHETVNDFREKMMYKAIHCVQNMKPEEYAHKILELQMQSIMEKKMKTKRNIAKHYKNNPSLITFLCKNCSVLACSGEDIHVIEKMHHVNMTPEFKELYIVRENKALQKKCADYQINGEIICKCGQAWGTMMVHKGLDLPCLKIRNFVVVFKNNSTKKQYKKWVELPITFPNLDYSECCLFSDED

B1: 44bp dsRNA (dsRNA)
RNA 1: CGAGCAGACUGGCAAUCCGGAUCUCCCAGGCCCGGCUUUCAAGC
RNA 2: GCUUGAAAGCCGGGCCUGGGAGAUCCGGAUUGCCAGUCUGCUCG
modifications: strand 2 5' amino modifier C6 (5AmMC6)
Kd [1]: 56.1 ± 10 nM | Kd [2]: 326 ± 138 nM | Kd [3]: 771 ± 207 nM

fold increase of co-precipitated LGP2 with poly(I:C) against without poly(I:C) [4]: > 3 fold
B2: LGP2 (FLAG-tagged) (natural protein, UniProt Q96C10 1-678, looked up)
chain: T1 sequence
